Target: nLUC‐TaWUS‐like‐5D (wheat (Triticum aestivum))
Experiment: split reporter

luminescence signal, fold over the other three pairs of co-infiltration samples: 5 fold
Substance: SnRK1‐4B‐cLUC (natural protein)

Reference: paper PMC12120876
